What was measured:
[1] = system: HeLa Kyoto; test: solubility change mitosis vs G1/S (difference of NP-40 vs SDS log2 ratios) (log2 ratio difference); higher = more soluble in mitosis
[2] = system: HeLa Kyoto; test: thermal stability score vs G1/S (z-score of summed log2 fold changes over temperatures); higher = more thermally stable than in G1/S
[3] = system: HeLa Kyoto; test: solubility in G1/S (NP-40 vs SDS abundance) (log2 ratio); higher = more soluble; settings: cell cycle stage: G1/S
[4] = cell cycle stage: early G1 (4.5 h after nocodazole release)
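Throughout, for solubility change mitosis vs G1/S (difference of NP-40 vs SDS log2 ratios): synchronized HeLa Kyoto cells (double thymidine block for G1/S, nocodazole release for mitosis), protein amounts in NP-40 versus SDS lysates quantified by mass spectrometry, three biological replicates.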
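Throughout, for solubility in G1/S (NP-40 vs SDS abundance): HeLa Kyoto cells arrested at G1/S by double thymidine block, proteins quantified by TMT10plex mass spectrometry in mild NP-40 versus SDS extracts, three biological replicates.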
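Throughout, for thermal stability score vs G1/S (z-score of summed log2 fold changes over temperatures): synchronized HeLa Kyoto cells, proteins quantified by TMT10plex mass spectrometry, three biological replicates, mitosis taken 0.5 h after nocodazole release, G1/S directly after double thymidine block.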

Sequence | solubility change mitosis (log2) [1] | thermal stability score [2, 4] | thermal stability score ([2]; cell cycle stage: mitosis) | solubility in G1/S (log2) [3]
MAKREDSPGPEVQPMDKQFLVCSICLDRYQCPKVLPCLHTFCERCLQNYIPAQSLTLSCPVCRQTSILPEQGVSALQNNFFISSLMEAMQQAPDGAHDPEDPHPLSVVAGRPLSCPNHEGKTMEFYCEACETAMCGECRAGEHREHGTVLLRDVVEQHKAALQRQLEAVRGRLPQLSAAIALVGGISQQLQERKAEALAQISAAFEDLEQALQQRKQALVSDLETICGAKQKVLQSQLDTLRQGQEHIGSSCSFAEQALRLGSAPEVLLVRKHMRERLAALAAQAFPERPHENAQLELVLEVDGLRRSVLNLGALLTTSATAHETVATGEGLRQALVGQPASLTVTTKDKDGRLVRTGSAELRAEITGPDGTRLPVPVVDHKNGTYELVYTARTEGELLLSVLLYGQPVRGSPFRVRALRPGDLPPSPDDVKRRVKSPGGPGSHVRQKAVRRPSSMYSTGGKRKDNPIEDELVFRVGSRGREKGEFTNLQGVSAASSGRIVVADSNNQCIQVFSNEGQFKFRFGVRGRSPGQLQRPTGVAVDTNGDIIVADYDNRWVSIFSPEGKFKTKIGAGRLMGPKGVAVDRNGHIIVVDNKSCCVFTFQPNGKLVGRFGGRGATDRHFAGPHFVAVNNKNEIVVTDFHNHSVKVYSADGEFLFKFGSHGEGNGQFNAPTGVAVDSNGNIIVADWGNSRIQVFDSSGSFLSYINTSAEPLYGPQGLALTSDGHVVVADAGNHCFKAYRYLQ [TRIM3] | -0.138 | 0.13 | 0.0555 | -0.0387
MAPARLFALLLFFVGGVAESIRETEVIDPQDLLEGRYFSGALPDDEDVVGPGQESDDFELSGSGDLDDLEDSMIGPEVVHPLVPLDNHIPERAGSGSQVPTEPKKLEENEVIPKRISPVEESEDVSNKVSMSSTVQGSNIFERTEVLAALIVGGIVGILFAVFLILLLMYRMKKKDEGSYDLGKKPIYKKAPTNEFYA [SDC4] | 0.235 | 2.66 | 4.92 | -0.523
MAQVSINNDYSEWDLSTDAGERARLLQSPCVDTAPKSEWEASPGGLDRGTTSTLGAIFIVVNACLGAGLLNFPAAFSTAGGVAAGIALQMGMLVFIISGLVILAYCSQASNERTYQEVVWAVCGKLTGVLCEVAIAVYTFGTCIAFLIIIGDQQDKIIAVMAKEPEGASGPWYTDRKFTISLTAFLFILPLSIPREIGFQKYASFLSVVGTWYVTAIVIIKYIWPDKEMTPGNILTRPASWMAVFNAMPTICFGFQCHVSSVPVFNSMQQPEVKTWGGVVTAAMVIALAVYMGTGICGFLTFGAAVDPDVLLSYPSEDMAVAVARAFIILSVLTSYPILHFCGRAVVEGLWLRYQGVPVEEDVGRERRRRVLQTLVWFLLTLLLALFIPDIGKVISVIGGLAACFIFVFPGLCLIQAKLSEMEEVKPASWWVLVSYGVLLVTLGAFIFGQTTANAIFVDLLA [SLC38A7] | -0.113 | -4.08 | -4.26 | -0.213
MATLVELPDSVLLEIFSYLPVRDRIRISRVCHRWKRLVDDRWLWRHVDLTLYTMRPKVMWHLLRRYMASRLHSLRMGGYLFSGSQAPQLSPALLRALGQKCPNLKRLCLHVADLSMVPITSLPSTLRTLELHSCEISMAWLHKQQDPTVLPLLECIVLDRVPAFRDEHLQGLTRFRALRSLVLGGTYRVTETGLDAGLQELSYLQRLEVLGCTLSADSTLLAISRHLRDVRKIRLTVRGLSAPGLAVLEGMPALESLCLQGPLVTPEMPSPTEILSSCLTMPKLRVLELQGLGWEGQEAEKILCKGLPHCMVIVRACPKESMDWWM [FBXL12] | -0.183 | -0.861 | -0.543 | -0.129
MAVSERRGLGRGSPAEWGQRLLLVLLLGGCSGRIHQLALTGEKRADIQLNSFGFYTNGSLEVELSVLRLGLREAEEKSLLVGFSLSRVRSGRVRSYSTRDFQDCPLQKNSSSFLVLFLINTKDLQVQVRKYGEQKTLFIFPGLLPEAPSKPGLPKPQATVPRKVDGGGTSAASKPKSTPAVIQGPSGKDKDLVLGLSHLNNSYNFSFHVVIGSQAEEGQYSLNFHNCNNSVPGKEHPFDITVMIREKNPDGFLSAAEMPLFKLYMVMSACFLAAGIFWVSILCRNTYSVFKIHWLMAALAFTKSISLLFHSINYYFINSQGHPIEGLAVMYYIAHLLKGALLFITIALIGSGWAFIKYVLSDKEKKVFGIVIPMQVLANVAYIIIESREEGASDYVLWKEILFLVDLICCGAILFPVVWSIRHLQDASGTDGKVAVNLAKLKLFRHYYVMVICYVYFTRIIAILLQVAVPFQWQWLYQLLVEGSTLAFFVLTGYKFQPTGNNPYLQLPQEDEEDVQMEQVMTDSGFREGLSKVNKTASGRELL [GPR108] | -0.16 | -3.36 | -3.48 | 0.04
MDANSKDKPPETKESAMNNAGNASFILGTGKIVTPQKHAELPPNPCTPDTFKSPLNFSTVTVEQLGITPESFVRNSAGKSSSYLKKCRRRSAVGARGSPETNHLIRFIARQQNIKNARKSPLAQDSPSQGSPALYRNVNTLRERISAFQSAFHSIKENEKMTGCLEFSEAGKESEMTDLTRKEGLSACQQSGFPAVLSSKRRRISYQRDSDENLTDAEGKVIGLQIFNIDTDRACAVETSVDLSEISSKLGSTQSGFLVEESLPLSELTETSNALKVADCVVGKGSSDAVSPDTFTAEVSSDAVPDVRSPATPACRRDLPTPKTFVLRSVLKKPSVKMCLESLQEHCNNLYDDDGTHPSLISNLPNCCKEKEAEDEENFEAPAFLNMRKRKRVTFGEDLSPEVFDESLPANTPLRKGGTPVCKKDFSGLSSLLLEQSPVPEPLPQPDFDDKGENLENIEPLQVSFAVLSSPNKSSISETLSGTDTFSSSNNHEKISSPKVGRITRTSNRRNQLVSVVEESVCNLLNTEVQPCKEKKINRRKSQETKCTKRALPKKSQVLKSCRKKKGKGKKSVQKSLYGERDIASKKPLLSPIPELPEVPEMTPSIPSIRRLGSGYFSSNGKLEEVKTPKNPVKRKDLLRHDPDLHMHQGYDKYDVSEFCSYIKSSSSLGNATSDEDPNTNIMNINENKNIPKAKNKSESENEPKAGTDSPVSCASVTEERVASDSPKPALTLQQGQEFSAGGQNAENLCQFFKISPDLNIKCERKDDFLGAAEGKLQCNRLMPNSQKDCHCLGDVLIENTKESKSQSEDLGRKPMESSSVVSCRDRKDRRRSMCYSDGRSLHLEKNGNHTPSSSVGSSVEISLENSELFKDLSDAIEQTFQRRNSETKVRRSTRLQKDLENEGLVWISLPLPSTSQKAKRRTICTFDSSGFESMSPIKETVSSRQKPQMAPPVSDPENSQGPAAGSSDEPGKRRKSFCISTLANTKATSQFKGYRRRSSLNGKGESSLTALERIEHNGERKQ [CDCA2] | 0.243 | 0.00387 | -1.54 | -0.581
MDEETRHSLECIQANQIFPRKQLIREDENLQVPFLELHGESTEFVGRAEDAIIALSNYRLHIKFKESLVNVPLQLIESVECRDIFQLHLTCKDCKVIRCQFSTFEQCQEWLKRLNNAIRPPAKIEDLFSFAYHAWCMEVYASEKEQHGDLCRPGEHVTSRFKNEVERMGFDMNNAWRISNINEKYKLCGSYPQELIVPAWITDKELESVSSFRSWKRIPAVIYRHQSNGAVIARCGQPEVSWWGWRNADDEHLVQSVAKACASDSRSSGSKLSTRNTSRDFPNGGDLSDVEFDSSLSNASGAESLAIQPQKLLILDARSYAAAVANRAKGGGCECPEYYPNCEVVFMGMANIHSIRRSFQSLRLLCTQMPDPGNWLSALESTKWLHHLSVLLKSALLVVHAVDQDQRPVLVHCSDGWDRTPQIVALAKLLLDPYYRTIEGFQVLVEMEWLDFGHKFADRCGHGENSDDLNERCPVFLQWLDCVHQLQRQFPCSFEFNEAFLVKLVQHTYSCLFGTFLCNNAKERGEKHTQERTCSVWSLLRAGNKAFKNLLYSSQSEAVLYPVCHVRNLMLWSAVYLPCPSPTTPVDDSCAPYPAPGTSPDDPPLSRLPKTRSYDNLTTACDNTVPLASRRCSDPSLNEKWQEHRRSLELSSLAGPGEDPLSADSLGKPTRVPGGAELSVAAGVAEGQMENILQEATKEESGVEEPAHRAGIEIQEGKEDPLLEKESRRKTPEASAIGLHQDPELGDAALRSHLDMSWPLFSQGISEQQSGLSVLLSSLQVPPRGEDSLEVPVEQFRIEEIAEGREEAVLPIPVDAKVGYGTSQSCSLLPSQVPFETRGPNVDSSTDMLVEDKVKSVSGPQGHHRSCLVNSGKDRLPQTMEPSPSETSLVERPQVGSVVHRTSLGSTLSLTRSPCALPLAECKEGLVCNGAPETENRASEQPPGLSTLQMYPTPNGHCANGEAGRSKDSLSRQLSAMSCSSAHLHSRNLHHKWLHSHSGRPSATSSPDQPSRSHLDDDGMSVYTDTIQQRLRQIESGHQQEVETLKKQVQELKSRLESQYLTSSLHFNGDFGDEVTSIPDSESNLDQNCLSRCSTEIFSEASWEQVDKQDTEMTRWLPDHLAAHCYACDSAFWLASRKHHCRNCGNVFCSSCCNQKVPVPSQQLFEPSRVCKSCYSSLHPTSSSIDLELDKPIAATSN [MTMR3] | -0.15 | -0.332 | -0.143 | -0.000164
MDGLRQRVEHFLEQRNLVTEVLGALEAKTGVEKRYLAAGAVTLLSLYLLFGYGASLLCNLIGFVYPAYASIKAIESPSKDDDTVWLTYWVVYALFGLAEFFSDLLLSWFPFYYVGKCAFLLFCMAPRPWNGALMLYQRVVRPLFLRHHGAVDRIMNDLSGRALDAAAGITRNVLQVLARSRAGITPVAVAGPSTPLEADLKPSQTPQPKDK [REEP6] | -0.143 | 0.664 | -0.943 | -0.206
MDLDVVNMFVIAGGTLAIPILAFVASFLLWPSALIRIYYWYWRRTLGMQVRYVHHEDYQFCYSFRGRPGHKPSILMLHGFSAHKDMWLSVVKFLPKNLHLVCVDMPGHEGTTRSSLDDLSIDGQVKRIHQFVECLKLNKKPFHLVGTSMGGQVAGVYAAYYPSDVSSLCLVCPAGLQYSTDNQFVQRLKELQGSAAVEKIPLIPSTPEEMSEMLQLCSYVRFKVPQQILQGLVDVRIPHNNFYRKLFLEIVSEKSRYSLHQNMDKIKVPTQIIWGKQDQVLDVSGADMLAKSIANCQVELLENCGHSVVMERPRKTAKLIIDFLASVHNTDNNKKLD [ABHD6] | -0.0832 | 0.51 | -0.118 | -0.209
MDLPVDEWKSYLLQKWASLPTSVQVTISTAETLRDIFLHSSSLLQPEDELFLKRLSKGYLVGKDSDAPLFYREEGNKKFQEKDYTGAAVLYSKGVSHSRPNTEDMSLCHANRSAALFHLGQYETCLKDINRAQTHGYPERLQPKIMLRKAECLVALGRLQEASQTISDLERNFTATPALADVLPQTLQRNLHRLKMKMQEKDSLTESFPAALAKTLEDAALREENEQLSNASSSIGLCVDPLKGRCLVATKDILPGELLVQEDAFVSVLNPGELPPPHHGLDSKWDTRVTNGDLYCHRCLKHTLATVPCDGCSYAKYCSQECLQQAWELYHRTECPLGGLLLTLGVFCHIALRLTLLVGFEDVRKIITKLCDKISNKDICLPESNNQVKTLNYGLGESEKNGNIVETPIPGCDINGKYENNYNAVFNLLPHTENHSPEHKFLCALCVSALCRQLEAASLQAIPTERIVNSSQLKAAVTPELCPDVTIWGVAMLRHMLQLQCNAQAMTTIQHTGPKGSIVTDSRQVRLATGIFPVISLLNHSCSPNTSVSFISTVATIRASQRIRKGQEILHCYGPHKSRMGVAERQQKLRSQYFFDCACPACQTEAHRMAAGPRWEAFCCNSCGAPMQGDDVLRCGSRSCAESAVSRDHLVSRLQDLQQQVRVAQKLLRDGELERAVQRLSGCQRDAESFLWAEHAVVGEIADGLARACAALGDWQKSATHLQRSLYVVEVRHGPSSVEMGHELFKLAQIFFNGFAVPEALSTIQKAEEVLSLHCGPWDDEIQELQKMKSCLLDLPPTPVGPAL [SMYD4] | 0.000145 | 0.716 | 0.631 | -0.119
MDSSAVITQISKEEARGPLRGKGDQKSAASQKPRSRGILHSLFCCVCRDDGEALPAHSGAPLLVEENGAIPKQTPVQYLLPEAKAQDSDKICVVIDLDETLVHSSFKPVNNADFIIPVEIDGVVHQVYVLKRPHVDEFLQRMGELFECVLFTASLAKYADPVADLLDKWGAFRARLFRESCVFHRGNYVKDLSRLGRDLRRVLILDNSPASYVFHPDNAVPVASWFDNMSDTELHDLLPFFEQLSRVDDVYSVLRQPRPGS [CTDSP1] | -0.0207 | 0.748 | 0.982 | -0.148
